Reference: US20200332005A1 (I MAB, published 2020)
Read-outs that look alike come from different tables or passages of the source.

What was measured:
[1] = target: T1, recombinant human CD73 protein (human, UniProt P21589 27-547); assay: cell-based or functional assay
T1 sequence: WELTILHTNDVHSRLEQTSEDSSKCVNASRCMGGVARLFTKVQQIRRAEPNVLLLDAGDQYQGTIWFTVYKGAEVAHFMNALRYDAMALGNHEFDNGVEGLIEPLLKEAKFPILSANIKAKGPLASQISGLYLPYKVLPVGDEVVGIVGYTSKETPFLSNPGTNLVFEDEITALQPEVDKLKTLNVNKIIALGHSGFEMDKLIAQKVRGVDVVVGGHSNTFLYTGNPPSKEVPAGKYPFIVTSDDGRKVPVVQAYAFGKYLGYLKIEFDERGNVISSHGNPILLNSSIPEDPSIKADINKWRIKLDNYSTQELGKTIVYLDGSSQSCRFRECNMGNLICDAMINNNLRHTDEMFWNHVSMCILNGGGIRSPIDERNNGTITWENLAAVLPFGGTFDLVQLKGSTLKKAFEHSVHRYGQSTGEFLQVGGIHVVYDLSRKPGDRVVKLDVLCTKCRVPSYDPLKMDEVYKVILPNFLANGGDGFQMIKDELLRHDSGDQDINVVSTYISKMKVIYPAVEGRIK

[2] = target: T2, human CD73 on the cell surface (human, UniProt P21589 27-549); assay: cell-based or functional assay
T2 sequence: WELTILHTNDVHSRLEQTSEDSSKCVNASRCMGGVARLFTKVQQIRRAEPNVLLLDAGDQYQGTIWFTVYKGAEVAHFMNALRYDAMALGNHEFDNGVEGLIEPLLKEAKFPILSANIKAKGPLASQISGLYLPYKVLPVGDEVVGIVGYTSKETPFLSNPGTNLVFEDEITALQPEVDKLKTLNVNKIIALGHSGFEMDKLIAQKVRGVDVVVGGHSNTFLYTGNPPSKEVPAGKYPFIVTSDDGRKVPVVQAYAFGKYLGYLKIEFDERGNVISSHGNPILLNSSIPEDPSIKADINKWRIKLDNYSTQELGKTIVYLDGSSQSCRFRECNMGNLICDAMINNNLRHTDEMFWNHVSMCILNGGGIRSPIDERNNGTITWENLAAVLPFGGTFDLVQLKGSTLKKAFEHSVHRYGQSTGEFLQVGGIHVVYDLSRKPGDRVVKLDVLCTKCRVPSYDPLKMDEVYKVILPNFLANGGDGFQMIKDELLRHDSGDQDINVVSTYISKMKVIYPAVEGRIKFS

[3] = target: T1, recombinant human CD73 protein; assay: cell-based or functional assay; remark: listed apart in the source
[4] = target: T2, human CD73 on the cell surface; assay: cell-based or functional assay; remark: listed apart in the source
[5] = target: T2, human CD73 on the cell surface; assay: flow cytometry on SK-OV-3 cells
Source text: In the right panel, human ovarian carcinoma cell line (SK-OV-3) was stained with different concentrations of Hu101-28 and analyzed for surface binding by flow cytometry.

cyno CD73 [6] = target: cyno CD73 (cyno); assay: cell-based or functional assay
[7] = target: T1, recombinant human CD73 protein; assay: cell-based or functional assay; remark: listed apart in the source
[8] = target: T2, human CD73 on the cell surface; assay: flow cytometry on SK-OV-3 cells; remark: listed apart in the source
Description: Binding was measured using an FACSCanto (Becton-Dickinson), and the results are presented in FIG. 8 (see also the table below).

[9] = target: T1, recombinant human CD73 protein; assay: ELISA, recombinant human CD73 at 2 ug/ml
[10] = target: T1, recombinant human CD73 protein; assay: SPR, Biacore T200, antibody captured by anti-human Fc IgG, antigen as analyte, 1:1 model, 25 C
Description: For the binding assay, the Biacore T200 system was used through human antibody capture approach. The anti-human Fc lgG were immobilized on CMS sensor chip according to the manufactory's instruction. The test antibody was injected and captured by the immobilized anti-human Fc lgG. And then serial concentrations of antigen was individually injected, and the binding profile was recorded for each concentration antigen analyte, respectively. The assay system was regenerated by injection of 10 mM Glycine-HCl pH 1.5 for 30 seconds. The running buffer was HBS-EP+(10 mM HEPES, pH 7.4, 150 mM NaCl, 3 mM EDTA and 0.05% P20). The assay temperature was 25° C., and the association and dissociation time were 180 and 600 seconds, respectively.

cyno CD73 [11] = target: cyno CD73 (cyno); assay: plate binding assay read as OD 450 against Log (nM) of antibody; text: in vitro biochemical assay
[12] = target: T1, recombinant human CD73 protein; assay: as above
C-terminal of CD73 = assay: plate binding assay, axis Binding activity (OD450) against Ab (µg/ml); panel Binding to C-terminal of CD73
C-terminal of CD73, sequence (P21589 whole entry): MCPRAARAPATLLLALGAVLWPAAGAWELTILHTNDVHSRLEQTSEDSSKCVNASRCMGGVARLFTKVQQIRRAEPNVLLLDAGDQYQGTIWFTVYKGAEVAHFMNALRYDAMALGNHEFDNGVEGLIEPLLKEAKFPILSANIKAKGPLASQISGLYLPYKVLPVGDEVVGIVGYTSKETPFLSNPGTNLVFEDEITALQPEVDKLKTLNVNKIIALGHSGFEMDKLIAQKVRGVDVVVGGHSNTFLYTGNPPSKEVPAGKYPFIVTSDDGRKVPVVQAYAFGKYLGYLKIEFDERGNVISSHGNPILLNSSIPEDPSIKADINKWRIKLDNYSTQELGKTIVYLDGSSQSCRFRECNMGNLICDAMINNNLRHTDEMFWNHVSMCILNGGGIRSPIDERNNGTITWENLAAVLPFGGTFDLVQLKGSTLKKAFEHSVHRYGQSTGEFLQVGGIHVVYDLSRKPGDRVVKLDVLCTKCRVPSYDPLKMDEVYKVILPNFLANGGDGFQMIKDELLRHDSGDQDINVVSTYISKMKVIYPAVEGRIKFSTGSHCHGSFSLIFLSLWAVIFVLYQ

IC50, inhibition of recombinant human CD73 activity (CellTiter-Glo) [1]: 2.84 nM
IC50, inhibition of CD73 activity on MDA-MB-231 cells (CellTiter-Glo) [2]: 8.21 nM
IC50, inhibition of CD73 activity on SK-OV-3 cells (CellTiter-Glo) [2]: 2.52 nM
IC50 (nM), inhibition of recombinant CD73 enzymatic activity [3]: 9.35 nM
IC50 (nM), inhibition of CD73 enzymatic activity on SK-OV-3 cells [4]: 2.52 nM
EC50 [5]: 0.67 nM
IC50, inhibition of CD73 enzyme activity (% of residual enzyme activity) (cyno CD73 [6]): 2.22 nM
IC50, inhibition of CD73 enzyme activity (% of residual enzyme activity) [7]: 1.78 nM
EC50 [8]: 1.35 nM
EC50 [9]: 0.0887 nM
Kd [10]: 0.59 nM
koff [10]: 3.47e-05 s⁻¹
kon [10]: 58900 M⁻¹ s⁻¹
EC50 (cyno CD73 [11]): 0.44 nM
EC50 [12]: 0.09 nM
EC50 (read off the curve) (C-terminal of CD73): ~0.02 µg/mL
B1: Hu101-28 (antibody, V domains shown)
VH: EVQLQESGPGLVKPSETLSLTCAVSGYSITSGYYWNWIRQPPGKKLEWMGYINYGGSNGYNPSLKSRITISRDTSKNQFSLKLSSVTAADTAVYYCARDYDAYYEALDDWGQGTTVTVSS
VL: EIVLSQSPATLSLSPGERATLSCRASSRVNYMHWYQQKPGQSPRPWISATSNLASGVPARFSGSGSGTSYTLTISSLEPEDFAVYYCQQWSSNPPTFGGGTKVEIK
notes: also called humanized anti-CD73 antibody Hu101-28
